Results from the DeepSol protein solubility set.

assay: soluble on expression in E. coli; label from the status in PepcDB or PDB records

Sequence | soluble on expression in E. coli
MSPRDVLDSIFAFPPNRDTLGGTSYLIVGNEGNILIDCPALDQTNLNFLRSHGGVRWLFLTHRGAIGRTAEIQQNYGCDILIQEQEAYLLPGLTVTTFTQEFAVTPTAKAIWTPGHSPGSSCLYYNHQGGVLFSGRHLLPNQKGEPVPLRTAKTFHWPRQIKSLQTILETLTPETLQYICPGANTGFLRGKRSIDTAYQRLASLDLKALLQTQPLILEHHHHHH | soluble
MGHHHHHHSHLSPDRRASLLTSLMLVKRDYRYDRVLFWGRILGLVADYYIAQGLSEDQLAPRKTLYSLNCTEWSLLPPATEEMVAQSSVVKGRFMGDPSYEYEHTELQKVNEGEKVFEEEIVVQIKEETRLVSVIDQIDKAVAIIPRGALFKTPFGPTHVNRTFEGLSLSEAKKLSSYFHFREPVELKNKTLLEKADLDPSLDFMDSLEHDIPKGSWSIQMERGNALVVLRSLLWPGLTFYHAPRTKNYGYVYVGTGEKNMDLPFML | not soluble
MAHHHHHHMHNFAKIFRSNFIDINAANKFEIFLKTILRIYKTPARTHLLAHAADISAIYAVRQIYNYMKNDEEGRTVLKEKPLLIRQDIQFNELKKLPKNTLGYKYMKFLETYKLHAHDREVSHFFTDLNYSYILTRYRQIHDIGHVVYNLNISIESEAALKLIELVQTKLPITLLAILVAPFMTPIYRFQYIFKDSLPSNFLSPNFDFTYTDAYNYVDELSIKQYEYNLTDYFHVEKRNDRNFYTKMYQHYFDNINNSSAVRGSIIYGFENKSSNDIIYDQPNREYIFLKNLKKKYLLFQYKPRKNLLRELYPWAYMAGVSTTKPLHSIHIEKWLDKDIDLFRRTYNISPLPDHLNLMAGIN | not soluble
MSLRVRTPSDDPVASAQIELIKQRINNIELFQNNRQAADSALRLEEGILSNAVNSLHRLREIQIQAGNPSLSEEDRKTLAVEAQALLNQLLDYANTKDSNGSYMFSGSKSLTQPVSLNLSGQYVYNGDSTQRFQAVTTSLLVAVNDTGDNVFMRIPSGNGRFAIRETLTPNTGTASVSSGSVTNEAAFVPDNYTMTFALNSQGNLVVMVSGTLSGNVIPPSGLPDDAPLYQEGSAIGFNGMEMVVSGLPKAGDSFSISPAKNESIFSTVQRMINNLNKPYTSSVEKAATQTENNQLLAQIDSALGHILSVQSDLGARLNQLETAEKANNDYLDISAATLKKLREIDPVAVATELNLQLVNLQAAQLSFTRIQGLSLFNFLEGHHHHHH | soluble
MVGPLNGAIGDITGAASELENIPFIGPAIGAKLQRTMRGINVAQAKVGQVVAMYGRATSAVSQVQERIGTLKEQASKASAAINRVAGKISPSLGNIVPTGSFASQATPAPEAVKPFPHLLIIQPLKPEAQPYYFNLDTAAFDELRRQTAFRWAGQERLTRSIAQQAVGLGDDKLSLKGSIFPGFKGGLKQLNTLRSMGRNLQPLSLTTGYGEVLGNWCLLSVDEEQSNLLAGGIPRKQGFSLEFVSYGDDLQNV | not soluble
MRYADRVTFVKTTDEQYNPDLGEYTHTEVISITKPCFVMDMGMEKSVQIFGDYQKDRKVIYLKQPYTKAFDYCEYEGRRYKTQANKLGAIVFYLEGDDSIGG | not soluble
MTQLRHFSHGASVFDIDSVEDFTEKVIQSSVPVIVDFHAEWCGPCQALGPRLEEKVNGRQGSVLLAKINVDHAGELAMDYGISAVPTVFAFKNGEKISGFSGVLDDEQLDDFIEDVLAA | not soluble
SQGRKPSSELISYQRLHPNEFEIKNLGVLPQSHVIRMERVRFADDIPVAYEITSIPEKIIRGFKESEITEHFFKTLTDNGYEIGKSQQTISASLANSSLAKHLKVKTGDALLSLTQISFLQDGQAFEYVRSYYVGDRFE | not soluble
MSLTITDWASTVNLNYDMSNKPVIAHVWKEQNANWLYGGWVCRSDRDENEGACDETKLPPGMLYGVTKIRLRFREQISHAETTLILDGQSGGFCLSTKISGGSVCKYLMQTCLSTFLQKSLRRYQKLAYGRLRWPWMEGHHHHHH | not soluble
MNRSMKQYDPIDFVVDWVDSNDISWKKKKSLYEENVISSVDDSQARYRDWGIFKYWFRAVEKNAPWVHKIFIITDHQNPKFLNKHSSKIVFVNHEDFIPNEYLPTFNSDAIEIGIQNIPGLSEHFVFFNDDMFINKPVKPIDFFDGNIPKDSGVMGPQFPISNSITHITVNNMEIINKYFLKKKVLRKYFFKFFNWRYGKDNIRTATALPWQVFIGFYDMHIPISFLKSTFDNVWSEVGNLLSQNYQHRFRSQLDYSVWLMRYFQLASGNFFPRRTRFGKYYNLGEQTEEIINDIKTGKHALIVLNDQESINDYPYEKKLVNEVFERRYSRKSEFENLEHHHHHH | not soluble
MGSDKIHHHHHHMEFDQAKKIVVATIIDQQGLSDRLVGCKAIITSTGRLSYSIPLAWVRERLEVLIRESLYRGSFEVISLANPNDTRQKATLMIDPYLPPQELIILGGGHIAQPLAKIGKLLGYQVAVLDDRPEFVSKDRFPEADKTICCSFDTVENSFDLGPQSNVVIVTRGHQHDLLCLRQMLKYPLAYLGMIGSRRKVAIIRERLLEEGLAVKKLNSVYMPIGLDIGAQTPAEIAVSITAELIKVRRGGKAASIKNIDKKNNDNEAGVFNLGELPSTIDQEILQLTLQAAINHVPAALATVVSTKGSTPRKAGAHMLVWADGRSLGTVGGGQGEAKVRAEAFKIINTSQPILYRISMDAANAAMEGMICGGSMEVFIEPVNGFAQVSGGGGIL | not soluble
MAHVAEWKKKEVEELAKLIKSYPVIALVDVSSMPAYPLSQMRRLIRENGGLLRVSRNTLIELAIKKAAKELGKPELEKLVEYIDRGAGILVTNMNPFKLYKFLQQNRQPAPAKPGAVVPKDVVVPAGPTPLAPGPIVGQMQALGIPARIEKGKVTIQKDTTVLKAGEVITPELANILNALGIQPLEVGLDVLAVYEDGIVYTPDVLAIDEQEYIDMLQKAYMHAFNLAVNIAYPTPETIEAIIQKAFLNAKTVAIEAGYITKETIQDIIGRAFRAMLLLAQQLP | soluble
MSLETTHSFGDRAVFAFGKHTGKIFKYAPRVLKDQDPEDLHQLRVGVRRLRTAVIGFMPAVQLPQGITERKIGKIGQQLGVQRDNDVLQEILLHKYLPHLPTSEQGCLEKVLKRLQKERKQAFKATYKLLTHDKFTQFKQSWEIWLEHPHFTSLGGLAIADVLPDLLLPQLSQFFLHPGWLVGTEIDPDTNSSNRQRRCIDLSPTAIETLLDGEESILHDLRKEAKRTRYQMELFSDYFGEEYQQLLAQVKMTQEILGNLQDSFVLRAMVEQYLDVDLKQLCPQWSAIFHGDRLGYWDQWQPLQSQFIDPVYRHHCRQLVQNPLVNSDQPTSSNLEGHHHHHH | soluble
MHNLANLYRTGWPGGVEKDTQKALDLYQKMIDLDVPQGFYDMGAMIGNRAGVKNPATDGLTFLDKAASLGNPPALTELGKFYIYVAKKKDLGLAYTHCAASQGYAPASYELGAYYKIVEHNFPKALVYYQVSVSQGGKSAAFFLSRVFGSETPPASAMWYAPDEKLREAYYSIYKKLEADPLEHHHHHH | not soluble
MGSDKIHHHHHHMDAKTIIENRFQSQKLIQTAWSDSPERIVFHFGAMQSQNYGQSLWAVGSRMTTPSEESVEQAINNGEIIRTWLLRGTIHLFSAKDYHWMMDLIAPTIDKICKPYRAKLGLTDEVLHKATEVVSEIVSEQAVTRKDLAAHLATKDLPSAGIPFAQLLVYLSSRKVICSGPNETFRNTMHIPADTNHFTREEAIKELAKRYIQSHAPATLKDFCFWSGLTVTDAKIGLADMPKMGDYYITTLVENGTMPTTIPLAGFDEWIIGYRDRSVVLPEIWHDEIMTKNGIFRPAIITEGKVVGKWEKPKKRAELDGDFWDRYIQFRNML | not soluble
MAHHHHHHMDTEAIKETAIREVCELSKTLKGTPFAITQRWKHIEALISTFERLLRRLELINLLCCEDEDSVSILKLYTQSQIASLEVLMKALMERGPNAAAFAAYAAGRLDEFVAVFTQSVGKTPRTNACVIADSGMRRWDQAAANGCEHNVVGNAAQNFLDLEVLLKTTLLTRGNQKGESKQCPLTKSDLSGYATVDDAPDRIKWAGGLLTVHKMYGWKEDGWSTNGRNVEFIKEAAEQFKEIKKVLEKQLPNGLDSIDALNAFLKREEPDAMMKDAIKTHQGWEEEKDDKTIIEKIKEIFGIGEPCAKIEFIETLIRTNVSARESGCTKQIDLFQLTTRQMEEVKERRLDQLRKTKTEAENYPRDMAKLSALKTNTNTKQGEYGECQFLCKRYKNAKAENEATDAAPNSPAAARKCRGKTENDCKDECKWDGNVCKNSDETSDYSRVCYSPLFPVLLLSLF | not soluble
MGSDKIHHHHHHMIFQLKGKFQHYPWGGRYFIPHFLKLTEVVDQPYAEYWLGAHPAASATIKFGEQWLPLADVIKQAPELLGERSRQQFGDNLPYLLKILDIKQPLSIQLHPNKAQAEYGFNQENRQGIPLEDVRRIYKDRNHKPEMMIALSDFWLLHGFKSITAIQACLAKYPSTSALAKSLVEKSLAVVYAEIMHADQTQLASWLRPIIEQRRADYLADKLKLSDPDYWLLYMTDDLAADAPLDAGLMCFYLFNIVHLKKGEGIYQAANLPHAYLRGQSIELMANSDNVIRGGLTTKWVDIPALLQAVDYRPVRPQIIAAYRDDKTVDQNFYLYPTPQAKDFALQRLTIRQLVENRFVTDSASMLLVMKGSLYIDLGNTSFHLNQGDAVFISADSHVELIGENDGYAIIASLP | not soluble
MLKDEYGRVVTNLRIAVTKKCNLRCFYCHKEGESNPGEEISAERIVEIARAFKELGVRKLKITGGEPLLRKDLPDIILNLPEFEEISMTTNGILLEKYAEELRECGLSRVNVSLDTLDAEKYRWITGGGEVQKVVNGIEKACEVGLTPVKINMLVLGGVNDNEVDELLEFTNSFNRGNTKAILQVIELVPFPGFEKYFFDISTIEEKYARMATQRRVRAMHRRTQYFTPKGVIEFVKPMDNTAFCMHCNRMRVTSDGKLKPCLLRNETITIDGKHGEELARAIIETVRKREPYFKGLEHHHHHH | soluble
MSLTADKYTVAINENALKILGEIVFLMGASQNFAKYPVSFIINYLLPSIYLNQYRIYRTVKDNKPIGFACWAFINDQVEKELIENDINLSVEERNSGENIYVLYFIAPFGHAKQIVHDLKNNIFPNKIVKGLRLDKDGKKVLRVATYYEGHHHHHH | soluble
MAEAASCARKGTKYAEGTQPFTVLIEGNIGSGKTTYLNHFEKYKNDICLLTEPVEKWRNVNGVNLLELMYKDPKKWAMPFQSYVTLTMLQSHTAPTNKKLKIMERSIFSARYCFVENMRRNGSLEQGMYNTLEEWYKFIEESIHVQADLIIYLRTSPEVAYERIRQRARSEESCVPLKYLQELHELHEDWLIHQRRPQSCKVLVLDADLNLENIGTEYQRSESSIFDAISSNQQPSPVLVSPSKRQRVAR | soluble
MKTHYRTIVLSDIHLGTSSSKAKEVSNFLKNHTCDTLLLNGDIIDGWQLQKYGKWKKSHTRFFRRVIKMTEQNKTKVYYLRGNHDDFLDTILPLSFGNIHIDREYIHQGATGKMYYVVHGDVFDTVTSQLKWIAKLGDVGYTFLLWLNKHYNNYRVKRGLPYYSLSQAVKQKVKTAVSYISDFEMQLADLARSRKCDGVICGHIHQPAIKEYNGIEYLNSGDWVETLSALVETIHGEWKLIYYNQAFDEDRDSTEDADDPLFVFENMARFSKDVTIYKPRYSAFNGMNPADNLATNNQ | not soluble
MGRSPCFFKSFKGKLHKDRSPDPSTLASPHPSTEARRPVEAGSAEWTWGWMKRLPPASLSPGIAMSCYSGDSMLQKYKVKNAYRLHWQGREEPGASTFASLVFQ | soluble
MGSDKIHHHHHHMGRYLERTEHISRFSQAHYFFSIDAPKSVKKEHILESVLNMAGSYVEYLGSGNKMETMEVAYYIGLNEFNASSIKHSIVKARENARGAKDSISSELWQSINTFYHSINLMDRATFNEMGIYEFSKNVLQNSSVIKGNIDNTLLHEEAWSIIHLGQHIERTTQVIRMIVTKINDINRIPKKEYYNMIELFENVNLLKSTEAYDMSKIFYREVPSVSHSLEFLTLNRNFPKSIVYNLRHIEHCLLRITNLSKHETNSLEFYASKLLCTVKYTSIQDIEKEPLAFYNDLLNKVAKLADMLETKYLQY | not soluble
